Experimental data: paper PMC4482739, “MamA as a Model Protein for Structure-Based Insight into the Evolutionary Origins of Magnetotactic Bacteria” (PLoS ONE, 2015)
Several values for one entry are separate records, joined by “and”; a condition that tells them apart may be missing. Identical values can stand only once. Blank lines part the entries; values can stand above or below the molecule they belong to.

Legend:
[1] = target: MamAΔ41 RS-1 TM (triple mutant E140A, K141A, E143A) (Desulfovibrio magneticus RS-1); experiment: crystal structure; X-ray, 2.88 Å, space group I4; crystals from 0.1 M Tris pH 8.1, 0.75 M sodium potassium tartrate, 0.5% PEG monomethyl ether 5000; six monomers as two trimeric rings in the asymmetric unit
[2] = target: MamAΔ41 RS-1 TM (triple mutant E140A, K141A, E143A) (Desulfovibrio magneticus RS-1); experiment: SEC; Superdex 200, buffer E (10 mM HEPES pH 7.5, 0.5 M NaCl, 5 mM βME); sizes from elution volumes against a standard calibration curve
[3] = target: MamAΔ41 from Desulfovibrio magneticus RS-1 (wild type) (Desulfovibrio magneticus RS-1); experiment: as above
[4] = target: the molecule itself; experiment: SEC; Superdex 200; sizes from elution volumes against protein markers; buffer for these proteins not stated

stoichiometry N [1]: 3 | stoichiometry N [2]: 13 and 8
Molecule: MamAΔ41 RS-1 TM (triple mutant E140A, K141A, E143A) (domain or fragment)

stoichiometry N [3]: 8
Molecule: MamAΔ41 from Desulfovibrio magneticus RS-1 (wild type) (domain or fragment)

B1: MamAΔ41 from Magnetospirillum gryphiswaldense MSR-1 (domain or fragment, UniProt Q93DY9 42-217, looked up)
chain: DDIRQVYYRDKGISHAKAGRYSEAVVMLEQVYDADAFDVEVALHLGIAYVKTGAVDRGTELLERSIADAPDNIKVATVLGLTYVQVQKYDLAVPLLVKVAEANPVNFNVRFRLGVALDNLGRFDEAIDSFKIALGLRPNEGKVHRAIAYSYEQMGSHEEALPHFKKANELDERSAV
notes: MamA of Magnetospirillum gryphiswaldense MSR-1, Δ41 mutant (the putative N-terminal TPR repeat removed); Trimer by SEC; also called MamAΔ41_(MSR-1)
stoichiometry N [4]: 3
